The assay deals with human TNF (hTNF) (human) (UniProt P01375). Nature of the assay: method not stated (free scFv protein; titration curves in FIG. 11).

In general, Kd refers to the concentration at which binding is half-saturated. A lower Kd goes with higher affinity.

Sequence of UniProt P01375 (P01375 77-233 limits assumed): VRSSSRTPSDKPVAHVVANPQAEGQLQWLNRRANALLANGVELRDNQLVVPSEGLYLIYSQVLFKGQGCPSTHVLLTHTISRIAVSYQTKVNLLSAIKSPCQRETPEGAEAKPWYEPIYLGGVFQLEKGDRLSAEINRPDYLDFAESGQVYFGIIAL

“2SD4 scFv (D2E7 scFv precursor), free protein”: the Kd was found to be 200 nM.

The record behind these values is US20100099103A1.
